Starred links: 1 amine or outer side, 2 acyl side, 3 side chain; linkers in the order of their positions; H or OH if unused. Groups on a side chain read outwards from the residue. *: point of attachment. C18 diacid = O=C(O)CCCCCCCCCCCCCCCCC(=O)*; γGlu = O=C(O)[C@H](CCC(=O)[*:2])N[*:1]; AEEA = NCCOCCOCC(=O)O

The text below walks through data of patent EP4603506A1, “NOVEL GLP-1 RECEPTOR ANTAGONIST, AND PHARMACEUTICAL COMPOSITION FOR PREVENTING OR TREATING CONGENITAL […] OR HYPOGLYCEMIA, COMPRISING SAME” (Hanmi Pharm. Co., Ltd., priority 2022, dated 2024).

Sequences and labels used below:
B1: acylated GLP-1R antagonist analog conjugate (SEQ ID NO: 16) (peptide)
peptide: Ac-DVSSYLEEEAARLFIAWLVK([AEEA-AEEA-γGlu-C18 diacid])GGPSSGAPPPS-NH2
SMILES: CC[C@H](C)[C@H](NC(=O)[C@H](Cc1ccccc1)NC(=O)[C@H](CC(C)C)NC(=O)[C@H](CCCNC(=N)N)NC(=O)[C@H](C)NC(=O)[C@H](C)NC(=O)[C@H](CCC(=O)O)NC(=O)[C@H](CCC(=O)O)NC(=O)[C@H](CCC(=O)O)NC(=O)[C@H](CC(C)C)NC(=O)[C@H](Cc1ccc(O)cc1)NC(=O)[C@H](CO)NC(=O)[C@H](CO)NC(=O)[C@@H](NC(=O)[C@H](CC(=O)O)NC(C)=O)C(C)C)C(=O)N[C@@H](C)C(=O)N[C@@H](Cc1c[nH]c2ccccc12)C(=O)N[C@@H](CC(C)C)C(=O)N[C@H](C(=O)N[C@@H](CCCCNC(=O)COCCOCCNC(=O)COCCOCCNC(=O)CC[C@H](NC(=O)CCCCCCCCCCCCCCCCC(=O)O)C(=O)O)C(=O)NCC(=O)NCC(=O)N1CCC[C@H]1C(=O)N[C@@H](CO)C(=O)N[C@@H](CO)C(=O)NCC(=O)N[C@@H](C)C(=O)N1CCC[C@H]1C(=O)N1CCC[C@H]1C(=O)N1CCC[C@H]1C(=O)N[C@@H](CO)C(N)=O)C(C)C
B2: acylated GLP-1R antagonist analog conjugate (SEQ ID NO: 15) (peptide)
peptide: Ac-DVSSYLEEEAVRLFIAWLVK([AEEA-AEEA-γGlu-C18 diacid])GGPSSGAPPPS-NH2
SMILES: CC[C@H](C)[C@H](NC(=O)[C@H](Cc1ccccc1)NC(=O)[C@H](CC(C)C)NC(=O)[C@H](CCCNC(=N)N)NC(=O)[C@@H](NC(=O)[C@H](C)NC(=O)[C@H](CCC(=O)O)NC(=O)[C@H](CCC(=O)O)NC(=O)[C@H](CCC(=O)O)NC(=O)[C@H](CC(C)C)NC(=O)[C@H](Cc1ccc(O)cc1)NC(=O)[C@H](CO)NC(=O)[C@H](CO)NC(=O)[C@@H](NC(=O)[C@H](CC(=O)O)NC(C)=O)C(C)C)C(C)C)C(=O)N[C@@H](C)C(=O)N[C@@H](Cc1c[nH]c2ccccc12)C(=O)N[C@@H](CC(C)C)C(=O)N[C@H](C(=O)N[C@@H](CCCCNC(=O)COCCOCCNC(=O)COCCOCCNC(=O)CC[C@H](NC(=O)CCCCCCCCCCCCCCCCC(=O)O)C(=O)O)C(=O)NCC(=O)NCC(=O)N1CCC[C@H]1C(=O)N[C@@H](CO)C(=O)N[C@@H](CO)C(=O)NCC(=O)N[C@@H](C)C(=O)N1CCC[C@H]1C(=O)N1CCC[C@H]1C(=O)N1CCC[C@H]1C(=O)N[C@@H](CO)C(N)=O)C(C)C

This test addresses human GLP-1 receptor (GLP-1R) (human, UniProt P43220 24-463). The experiment in a line: cell-based or functional assay.
For the molecule DLSSYLEEEAVRLFIEWLKNGGPSSGAPPPS (N-terminus acetylated; C-terminal amide) [GLP-1R antagonist analog (SEQ ID NO: 10)], the “In vitro activity compared with comparative substance (%); IC50 of cAMP inhibition in hGLP-1R CHO cells with 0.1 nM GLP-1” value turned out to be 250%.

Take B1: the “In vitro activity compared with comparative substance (%); IC50 of cAMP inhibition in hGLP-1R CHO cells with 0.1 nM GLP-1” value amounted to 13.5%.

For Ac-DVSSYLEEEAVRLFIAWLVKGGPSSGAPPPSC-NH2 [GLP-1R antagonist analog (SEQ ID NO: 12)], the “In vitro activity compared with comparative substance (%); IC50 of cAMP inhibition in hGLP-1R CHO cells with 0.1 nM GLP-1” value stood at 189%.

As to B2, the “In vitro activity compared with comparative substance (%); IC50 of cAMP inhibition in hGLP-1R CHO cells with 0.1 nM GLP-1” value turned out to be 14.3%.

Ac-DVSSYLEEQAVREFIAWLVKGGPSSGAPPPS-NH2 [GLP-1R antagonist analog (SEQ ID NO: 9)]: the “In vitro activity compared with comparative substance (%); IC50 of cAMP inhibition in hGLP-1R CHO cells with 0.1 nM GLP-1” value came out at 189%.
